Measurements reported in paper PMC9482650, “Quantitative fragmentomics allow affinity mapping of interactomes” (Nature Communications, 2022).

T1: TIAM2, Q8IVF5
T1 sequence (Q8IVF5 885-986, limits assumed, looked up): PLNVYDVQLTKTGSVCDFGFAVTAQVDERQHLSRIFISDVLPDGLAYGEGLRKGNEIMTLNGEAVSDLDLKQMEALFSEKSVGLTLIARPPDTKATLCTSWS

T2: NHERF3_1, Q5T2W1
T2 sequence (Q5T2W1 4-100, limits assumed, looked up): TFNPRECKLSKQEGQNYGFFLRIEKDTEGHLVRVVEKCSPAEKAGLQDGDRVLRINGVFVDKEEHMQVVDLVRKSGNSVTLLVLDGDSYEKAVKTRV

T3: MPDZ_10, O75970
T3 sequence (O75970 1624-1722, limits assumed, looked up): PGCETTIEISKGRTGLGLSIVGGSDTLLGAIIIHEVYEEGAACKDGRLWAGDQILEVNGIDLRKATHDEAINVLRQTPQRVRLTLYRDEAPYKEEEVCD

T4: PDZRN3_1, Q9UPQ7
T4 sequence (Q9UPQ7 244-349, limits assumed, looked up): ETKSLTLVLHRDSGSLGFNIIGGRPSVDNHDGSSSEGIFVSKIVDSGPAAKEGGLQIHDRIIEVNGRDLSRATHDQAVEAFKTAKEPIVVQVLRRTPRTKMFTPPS

T5: APBA1_2, Q02410
T5 sequence (Q02410 742-832, limits assumed, looked up): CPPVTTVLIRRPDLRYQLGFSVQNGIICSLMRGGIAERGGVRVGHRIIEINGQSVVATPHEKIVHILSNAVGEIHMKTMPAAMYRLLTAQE

T6: PTPN13_1, Q12923
T6 sequence (Q12923 1088-1188, limits assumed, looked up): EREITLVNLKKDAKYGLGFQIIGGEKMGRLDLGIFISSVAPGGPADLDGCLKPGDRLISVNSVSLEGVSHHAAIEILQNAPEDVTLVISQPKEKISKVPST

T7: APBA2_1, Q99767
T7 sequence (Q99767 563-664, limits assumed, looked up): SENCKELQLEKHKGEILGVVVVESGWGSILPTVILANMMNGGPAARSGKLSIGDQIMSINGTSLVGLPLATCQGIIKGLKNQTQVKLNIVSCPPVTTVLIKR

T8: DLG3_3, Q92796
T8 sequence (Q92796 374-475, limits assumed, looked up): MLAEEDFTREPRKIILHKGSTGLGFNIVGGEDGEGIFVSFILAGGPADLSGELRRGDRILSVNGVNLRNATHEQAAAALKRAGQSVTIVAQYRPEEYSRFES

T9: SNTG2, Q9NY99
T9 sequence (Q9NY99 68-166, limits assumed, looked up): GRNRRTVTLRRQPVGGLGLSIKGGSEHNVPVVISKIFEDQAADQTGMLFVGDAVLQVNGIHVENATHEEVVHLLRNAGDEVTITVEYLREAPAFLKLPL

T10: PARD3B_1, Q8TEW8
T10 sequence (Q8TEW8 196-299, limits assumed, looked up): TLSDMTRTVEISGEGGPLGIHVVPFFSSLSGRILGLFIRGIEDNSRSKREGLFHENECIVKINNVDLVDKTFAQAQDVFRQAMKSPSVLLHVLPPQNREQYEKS


Target: LAP2, Q96RT1
Assay: holdup assay
Design: key: below the threshold = too weak to quantify, mostly under pKd 3.1 to 4
Details: plain residues with an end cap or a label only (N-terminal biotin on a linker: ado-ado)

LAP2, Q96RT1, sequence (Q96RT1 other isoform, or with tags, fused parts or gaps): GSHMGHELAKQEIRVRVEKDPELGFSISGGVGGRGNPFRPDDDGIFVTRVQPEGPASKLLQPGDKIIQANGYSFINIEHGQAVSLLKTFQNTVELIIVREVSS

Binder | pKd
LKVPPEERLI [CRB2, Q5IJ48] | below the threshold
ETQVTAETVI [TMEM225B, P0DP42] | below the threshold

Target: GRIP2_6, Q9C0E4
Assay: holdup assay
Design: key: below the threshold = too weak to quantify, mostly under pKd 3.1 to 4
Details: plain residues with an end cap or a label only (N-terminal biotin on a linker: ado-ado)

GRIP2_6, Q9C0E4, sequence (Q9C0E4 648-740): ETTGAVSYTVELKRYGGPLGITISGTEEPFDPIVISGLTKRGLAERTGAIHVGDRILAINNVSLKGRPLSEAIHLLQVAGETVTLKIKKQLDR

Binder | pKd
LKVPPEERLI [CRB2, Q5IJ48] | below the threshold
ETQVTAETVI [TMEM225B, P0DP42] | below the threshold

Target: T1, TIAM2, Q8IVF5
Assay: holdup assay
Design: key: below the threshold = too weak to quantify, mostly under pKd 3.1 to 4
Details: plain residues with an end cap or a label only (N-terminal biotin on a linker: ado-ado)

Binder | pKd
LKVPPEERLI [CRB2, Q5IJ48] | below the threshold
ETQVTAETVI [TMEM225B, P0DP42] | 3.79

Target: T2, NHERF3_1, Q5T2W1
Assay: holdup assay
Design: key: below the threshold = too weak to quantify, mostly under pKd 3.1 to 4
Details: plain residues with an end cap or a label only (N-terminal biotin on a linker: ado-ado)

Binder | pKd
LKVPPEERLI [CRB2, Q5IJ48] | below the threshold
ETQVTAETVI [TMEM225B, P0DP42] | 4.68

Target: CASK, O14936
Assay: holdup assay
Design: key: below the threshold = too weak to quantify, mostly under pKd 3.1 to 4
Details: plain residues with an end cap or a label only (N-terminal biotin on a linker: ado-ado)

CASK, O14936, sequence (O14936 487-570): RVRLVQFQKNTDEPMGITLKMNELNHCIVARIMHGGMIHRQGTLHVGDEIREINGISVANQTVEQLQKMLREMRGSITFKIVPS

Binder | pKd
LKVPPEERLI [CRB2, Q5IJ48] | below the threshold
ETQVTAETVI [TMEM225B, P0DP42] | below the threshold

Target: NHERF2_2, Q15599
Assay: holdup assay
Design: key: below the threshold = too weak to quantify, mostly under pKd 3.1 to 4
Details: plain residues with an end cap or a label only (N-terminal biotin on a linker: ado-ado)

NHERF2_2, Q15599, sequence (Q15599 142-238): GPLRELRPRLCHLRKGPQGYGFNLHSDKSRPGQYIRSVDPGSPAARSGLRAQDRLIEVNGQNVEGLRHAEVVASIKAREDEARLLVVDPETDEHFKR

Binder | pKd
LKVPPEERLI [CRB2, Q5IJ48] | below the threshold
ETQVTAETVI [TMEM225B, P0DP42] | below the threshold

Target: LNX1_2, Q8TBB1
Assay: holdup assay
Design: key: below the threshold = too weak to quantify, mostly under pKd 3.1 to 4
Details: plain residues with an end cap or a label only (N-terminal biotin on a linker: ado-ado)

LNX1_2, Q8TBB1, sequence (Q8TBB1 371-470): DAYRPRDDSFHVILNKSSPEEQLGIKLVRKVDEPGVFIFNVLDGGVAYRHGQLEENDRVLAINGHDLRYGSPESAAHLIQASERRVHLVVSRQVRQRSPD

Binder | pKd
LKVPPEERLI [CRB2, Q5IJ48] | below the threshold
ETQVTAETVI [TMEM225B, P0DP42] | below the threshold

Target: HTRA2, O43464
Assay: holdup assay
Design: key: below the threshold = too weak to quantify, mostly under pKd 3.1 to 4
Details: plain residues with an end cap or a label only (N-terminal biotin on a linker: ado-ado)

HTRA2, O43464, sequence (O43464 355-458): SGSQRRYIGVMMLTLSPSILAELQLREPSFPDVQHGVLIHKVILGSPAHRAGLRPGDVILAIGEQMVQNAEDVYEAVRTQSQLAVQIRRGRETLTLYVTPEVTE

Binder | pKd
LKVPPEERLI [CRB2, Q5IJ48] | below the threshold
ETQVTAETVI [TMEM225B, P0DP42] | below the threshold

Target: T3, MPDZ_10, O75970
Assay: holdup assay
Design: key: below the threshold = too weak to quantify, mostly under pKd 3.1 to 4
Details: plain residues with an end cap or a label only (N-terminal biotin on a linker: ado-ado)

Binder | pKd
LKVPPEERLI [CRB2, Q5IJ48] | below the threshold
ETQVTAETVI [TMEM225B, P0DP42] | below the threshold

Target: GRIP2_5, Q9C0E4
Assay: holdup assay
Design: key: below the threshold = too weak to quantify, mostly under pKd 3.1 to 4
Details: plain residues with an end cap or a label only (N-terminal biotin on a linker: ado-ado)

GRIP2_5, Q9C0E4, sequence (Q9C0E4 544-642): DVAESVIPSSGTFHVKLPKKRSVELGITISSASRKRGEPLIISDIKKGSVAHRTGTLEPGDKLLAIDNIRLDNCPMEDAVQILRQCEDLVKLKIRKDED

Binder | pKd
LKVPPEERLI [CRB2, Q5IJ48] | below the threshold
ETQVTAETVI [TMEM225B, P0DP42] | below the threshold

Target: GORASP1, Q9BQQ3
Assay: holdup assay
Design: key: below the threshold = too weak to quantify, mostly under pKd 3.1 to 4
Details: plain residues with an end cap or a label only (N-terminal biotin on a linker: ado-ado)

GORASP1, Q9BQQ3, sequence (Q9BQQ3 1-208): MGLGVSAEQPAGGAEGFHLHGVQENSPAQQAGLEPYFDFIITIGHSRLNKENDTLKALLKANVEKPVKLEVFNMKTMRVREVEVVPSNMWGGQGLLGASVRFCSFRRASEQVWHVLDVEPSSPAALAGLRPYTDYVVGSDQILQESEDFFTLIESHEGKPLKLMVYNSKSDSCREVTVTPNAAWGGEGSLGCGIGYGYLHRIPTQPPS

Binder | pKd
LKVPPEERLI [CRB2, Q5IJ48] | below the threshold
ETQVTAETVI [TMEM225B, P0DP42] | 3.67

Target: T4, PDZRN3_1, Q9UPQ7
Assay: holdup assay
Design: key: below the threshold = too weak to quantify, mostly under pKd 3.1 to 4
Details: plain residues with an end cap or a label only (N-terminal biotin on a linker: ado-ado)

Binder | pKd
LKVPPEERLI [CRB2, Q5IJ48] | below the threshold
ETQVTAETVI [TMEM225B, P0DP42] | below the threshold

Target: T5, APBA1_2, Q02410
Assay: holdup assay
Design: key: below the threshold = too weak to quantify, mostly under pKd 3.1 to 4
Details: plain residues with an end cap or a label only (N-terminal biotin on a linker: ado-ado)

Binder | pKd
LKVPPEERLI [CRB2, Q5IJ48] | below the threshold
ETQVTAETVI [TMEM225B, P0DP42] | below the threshold

Target: FRMPD2_2, Q68DX3
Assay: holdup assay
Design: key: below the threshold = too weak to quantify, mostly under pKd 3.1 to 4
Details: plain residues with an end cap or a label only (N-terminal biotin on a linker: ado-ado)

FRMPD2_2, Q68DX3, sequence (Q68DX3 944-1038): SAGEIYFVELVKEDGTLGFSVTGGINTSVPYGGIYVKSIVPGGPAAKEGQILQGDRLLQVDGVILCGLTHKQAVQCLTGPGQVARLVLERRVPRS

Binder | pKd
LKVPPEERLI [CRB2, Q5IJ48] | below the threshold
ETQVTAETVI [TMEM225B, P0DP42] | below the threshold

Target: T6, PTPN13_1, Q12923
Assay: holdup assay
Design: key: below the threshold = too weak to quantify, mostly under pKd 3.1 to 4
Details: plain residues with an end cap or a label only (N-terminal biotin on a linker: ado-ado)

Binder | pKd
LKVPPEERLI [CRB2, Q5IJ48] | below the threshold
ETQVTAETVI [TMEM225B, P0DP42] | below the threshold

Target: GRIP2_4, Q9C0E4
Assay: holdup assay
Design: key: below the threshold = too weak to quantify, mostly under pKd 3.1 to 4
Details: plain residues with an end cap or a label only (N-terminal biotin on a linker: ado-ado)

GRIP2_4, Q9C0E4, sequence (Q9C0E4 446-548): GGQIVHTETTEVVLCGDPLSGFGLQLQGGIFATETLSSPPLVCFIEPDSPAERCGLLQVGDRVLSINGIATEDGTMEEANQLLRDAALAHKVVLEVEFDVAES

Binder | pKd
LKVPPEERLI [CRB2, Q5IJ48] | below the threshold
ETQVTAETVI [TMEM225B, P0DP42] | below the threshold

Target: T7, APBA2_1, Q99767
Assay: holdup assay
Design: key: below the threshold = too weak to quantify, mostly under pKd 3.1 to 4
Details: plain residues with an end cap or a label only (N-terminal biotin on a linker: ado-ado)

Binder | pKd
LKVPPEERLI [CRB2, Q5IJ48] | below the threshold
ETQVTAETVI [TMEM225B, P0DP42] | below the threshold

Target: T8, DLG3_3, Q92796
Assay: holdup assay
Design: key: below the threshold = too weak to quantify, mostly under pKd 3.1 to 4
Details: plain residues with an end cap or a label only (N-terminal biotin on a linker: ado-ado)

Binder | pKd
LKVPPEERLI [CRB2, Q5IJ48] | below the threshold
ETQVTAETVI [TMEM225B, P0DP42] | below the threshold

Target: Inadl_2, Q8NI35
Assay: holdup assay
Design: key: below the threshold = too weak to quantify, mostly under pKd 3.1 to 4
Details: plain residues with an end cap or a label only (N-terminal biotin on a linker: ado-ado)

Inadl_2, Q8NI35, sequence (Q8NI35 238-335): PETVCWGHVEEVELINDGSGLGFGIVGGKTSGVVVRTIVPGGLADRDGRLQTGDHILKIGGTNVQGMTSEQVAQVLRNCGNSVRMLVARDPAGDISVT

Binder | pKd
LKVPPEERLI [CRB2, Q5IJ48] | below the threshold
ETQVTAETVI [TMEM225B, P0DP42] | below the threshold

Target: MAGI1_1, Q96QZ7
Assay: holdup assay
Design: key: below the threshold = too weak to quantify, mostly under pKd 3.1 to 4
Details: plain residues with an end cap or a label only (N-terminal biotin on a linker: ado-ado)

MAGI1_1, Q96QZ7, sequence (Q96QZ7 1-106): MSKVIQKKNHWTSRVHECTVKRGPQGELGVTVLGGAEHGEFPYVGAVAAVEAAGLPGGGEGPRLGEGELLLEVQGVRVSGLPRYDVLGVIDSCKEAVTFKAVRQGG

Binder | pKd
LKVPPEERLI [CRB2, Q5IJ48] | below the threshold
ETQVTAETVI [TMEM225B, P0DP42] | below the threshold

Target: T9, SNTG2, Q9NY99
Assay: holdup assay
Design: key: below the threshold = too weak to quantify, mostly under pKd 3.1 to 4
Details: plain residues with an end cap or a label only (N-terminal biotin on a linker: ado-ado)

Binder | pKd
LKVPPEERLI [CRB2, Q5IJ48] | below the threshold
ETQVTAETVI [TMEM225B, P0DP42] | 4.15

Target: FRMPD2_3, Q68DX3
Assay: holdup assay
Design: key: below the threshold = too weak to quantify, mostly under pKd 3.1 to 4
Details: plain residues with an end cap or a label only (N-terminal biotin on a linker: ado-ado)

FRMPD2_3, Q68DX3, sequence (Q68DX3 1073-1166): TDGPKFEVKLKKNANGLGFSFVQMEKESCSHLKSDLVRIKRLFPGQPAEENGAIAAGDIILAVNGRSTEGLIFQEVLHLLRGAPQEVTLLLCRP

Binder | pKd
LKVPPEERLI [CRB2, Q5IJ48] | below the threshold
ETQVTAETVI [TMEM225B, P0DP42] | below the threshold

Target: GRIP2_3, Q9C0E4
Assay: holdup assay
Design: key: below the threshold = too weak to quantify, mostly under pKd 3.1 to 4
Details: plain residues with an end cap or a label only (N-terminal biotin on a linker: ado-ado)

GRIP2_3, Q9C0E4, sequence (Q9C0E4 238-339): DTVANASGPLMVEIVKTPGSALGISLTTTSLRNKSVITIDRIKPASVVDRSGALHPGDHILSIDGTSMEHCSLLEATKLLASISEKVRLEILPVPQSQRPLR

Binder | pKd
LKVPPEERLI [CRB2, Q5IJ48] | below the threshold
ETQVTAETVI [TMEM225B, P0DP42] | below the threshold

Target: LNX1_1, Q8TBB1
Assay: holdup assay
Design: key: below the threshold = too weak to quantify, mostly under pKd 3.1 to 4
Details: plain residues with an end cap or a label only (N-terminal biotin on a linker: ado-ado)

LNX1_1, Q8TBB1, sequence (Q8TBB1 261-371): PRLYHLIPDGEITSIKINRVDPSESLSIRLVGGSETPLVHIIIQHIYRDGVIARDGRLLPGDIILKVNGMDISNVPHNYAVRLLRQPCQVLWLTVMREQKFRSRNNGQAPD

Binder | pKd
LKVPPEERLI [CRB2, Q5IJ48] | below the threshold
ETQVTAETVI [TMEM225B, P0DP42] | 3.59

Target: PARD3_3, Q8TEW0
Assay: holdup assay
Design: key: below the threshold = too weak to quantify, mostly under pKd 3.1 to 4
Details: plain residues with an end cap or a label only (N-terminal biotin on a linker: ado-ado)

PARD3_3, Q8TEW0, sequence (Q8TEW0 582-685): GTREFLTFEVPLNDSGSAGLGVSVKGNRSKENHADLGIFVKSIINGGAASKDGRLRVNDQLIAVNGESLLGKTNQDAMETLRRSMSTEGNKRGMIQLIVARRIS

Binder | pKd
LKVPPEERLI [CRB2, Q5IJ48] | 3.85
ETQVTAETVI [TMEM225B, P0DP42] | 4.35

Target: TJP1_3, Q07157
Assay: holdup assay
Design: key: below the threshold = too weak to quantify, mostly under pKd 3.1 to 4
Details: plain residues with an end cap or a label only (N-terminal biotin on a linker: ado-ado)

TJP1_3, Q07157, sequence (Q07157 416-512): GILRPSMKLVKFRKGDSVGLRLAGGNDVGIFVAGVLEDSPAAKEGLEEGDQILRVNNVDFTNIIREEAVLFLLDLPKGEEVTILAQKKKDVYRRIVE

Binder | pKd
LKVPPEERLI [CRB2, Q5IJ48] | below the threshold
ETQVTAETVI [TMEM225B, P0DP42] | below the threshold

Target: T10, PARD3B_1, Q8TEW8
Assay: holdup assay
Design: key: below the threshold = too weak to quantify, mostly under pKd 3.1 to 4
Details: plain residues with an end cap or a label only (N-terminal biotin on a linker: ado-ado)

Binder | pKd
LKVPPEERLI [CRB2, Q5IJ48] | 3.88
ETQVTAETVI [TMEM225B, P0DP42] | 4.18
